# Data as given in patent US7087393.
# Target: rabbit anti-CS198 peptide antiserum raised against the unconjugated peptide of SEQUENCE ID NO 44 (13 week bleed)
# Experiment: Western blot competition: antiserum pre-incubated overnight at 4 C with varying concentrations of peptide immunogen before exposure to the filter carrying the 45 kD band
binder,measurement,value
RLQKSQSSDLLERERESVLRREQEVAEERRN [CS198 synthetic peptide of SEQUENCE ID NO 44],concentration of peptide at which antibody binding to the band was inhibited,2.6 µM
